*1 amine or outer side, *2 acyl side, *3 side chain or, on linkers, in order; H or OH if unused. Bridges are numbered along the chain shown (N, C = ends). [ ]: non-standard residue; d: D form. The star is where a group is joined. DOTA = O=C(O)CN1CCN(CC(=O)O)CCN(CC(=O)*)CCN(CC(=O)O)CC1; N(2-mercaptoethyl)Gly = O=C(CN(CCS[*:3])[*:1])[*:2]; 4Amb = NCc1ccc(C(=O)O)cc1; Orn = NCCC[C@H](N)C(=O)O; Aoc = NCCCCCCCC(=O)O; CPT = camptothecin; GABA = NCCCC(=O)O
What was measured:
Experiment in all cases: Radioligand binding, displacement of 125I-Tyr11-SRIF-14
SSTR3 = SSTR3 (Homo sapiens, UniProt P32745); set-up: host or cells: CHO (Chinese Hamster Ovary) cells, membrane preparation; conditions: for % displacement of [^125I] Tyr^11-SRIF-14: hSSTR-3; for affinity and selectivity to SSTR3 (in words): binding data
Text: (§1) The binding to human cloned receptors SSTR-1, or SSTR-2 or SSTR-3 evaluated in stable and selective transfected CHO (Chinese Hamster Ovary) cells and binding to STSR-4 and SSTR-5 in stable and selective transfected Chem-1 (Rat ChemiSCREEN) cells. […] The binding reactions were filtered, the filters were washed, and the bound radioactivity was counted using a gamma counter.
(§2) The following table depicts the conditions of binding assay to each of the somatostatin receptors used for the evaluations of binding affinities of the tested peptides. All assays were performed by quantitation method of radioligand binding under 25° C. The vehicle was 1% DMSO, the incubation buffer was 25 mM HEPES, pH 7.4, 5 mM MgCl2, 1 mM CaCl2, 0.1% BSA. […] The significance criteria were >50% of max inhibition. […] This specific binding data used for calculation of Bmax values which is the concentration of each of the expressed cloned receptor in its transfected cell system.
(§3) The Results of IC50 values were determined by a non-linear, least squares regression analysis using MathIQ™ (ID Business Solutions Ltd., UK). […] The Hill coefficient (nH), defining the slope of the competitive binding curve, was calculated using MathIQ™.

SSTR2 = SSTR2 (Homo sapiens, UniProt P30874); set-up: host or cells: CHO (Chinese Hamster Ovary) cells, membrane preparation; conditions: hSSTR-2
Text: as §1, §2, §3

SSTR1 = SSTR1 (Homo sapiens, UniProt P30872); set-up: host or cells: CHO (Chinese Hamster Ovary) cells, membrane preparation; conditions: hSSTR-1
Text: as §1, §2, §3

hSSTR-4 = molecular target: T1, hSSTR-4 (Homo sapiens, UniProt P31391); conditions: hSSTR-4
T1 construct: host or cells: Chem-1 (Rat ChemiSCREEN) cells, membrane preparation
Text: as §1, §2, §3

SSTR5 = SSTR5 (Homo sapiens, UniProt P35346); set-up: host or cells: Chem-1 (Rat ChemiSCREEN) cells, membrane preparation; conditions: hSSTR-5
Text: as §1, §2, §3

Sequence of SSTR2 (P30874 whole entry): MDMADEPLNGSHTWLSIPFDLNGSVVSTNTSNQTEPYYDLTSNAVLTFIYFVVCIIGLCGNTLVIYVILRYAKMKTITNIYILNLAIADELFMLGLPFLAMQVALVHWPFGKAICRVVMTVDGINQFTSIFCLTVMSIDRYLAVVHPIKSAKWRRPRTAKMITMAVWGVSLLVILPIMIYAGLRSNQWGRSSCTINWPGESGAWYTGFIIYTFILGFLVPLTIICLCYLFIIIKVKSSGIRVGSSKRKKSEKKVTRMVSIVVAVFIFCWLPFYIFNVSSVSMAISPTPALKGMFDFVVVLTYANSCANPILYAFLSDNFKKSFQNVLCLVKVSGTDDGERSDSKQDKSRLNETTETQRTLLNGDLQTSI
T1 sequence (P31391 whole entry): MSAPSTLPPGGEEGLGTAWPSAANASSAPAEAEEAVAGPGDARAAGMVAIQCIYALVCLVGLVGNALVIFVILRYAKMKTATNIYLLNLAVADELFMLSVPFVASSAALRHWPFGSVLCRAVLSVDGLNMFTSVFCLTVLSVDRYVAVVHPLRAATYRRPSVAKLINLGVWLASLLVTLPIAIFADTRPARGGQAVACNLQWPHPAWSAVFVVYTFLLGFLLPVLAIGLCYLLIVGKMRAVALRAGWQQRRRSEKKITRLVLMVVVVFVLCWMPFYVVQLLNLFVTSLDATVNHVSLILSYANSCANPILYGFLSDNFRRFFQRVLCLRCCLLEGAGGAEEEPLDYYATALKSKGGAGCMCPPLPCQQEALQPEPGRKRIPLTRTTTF
Sequence of SSTR5 (P35346 whole entry): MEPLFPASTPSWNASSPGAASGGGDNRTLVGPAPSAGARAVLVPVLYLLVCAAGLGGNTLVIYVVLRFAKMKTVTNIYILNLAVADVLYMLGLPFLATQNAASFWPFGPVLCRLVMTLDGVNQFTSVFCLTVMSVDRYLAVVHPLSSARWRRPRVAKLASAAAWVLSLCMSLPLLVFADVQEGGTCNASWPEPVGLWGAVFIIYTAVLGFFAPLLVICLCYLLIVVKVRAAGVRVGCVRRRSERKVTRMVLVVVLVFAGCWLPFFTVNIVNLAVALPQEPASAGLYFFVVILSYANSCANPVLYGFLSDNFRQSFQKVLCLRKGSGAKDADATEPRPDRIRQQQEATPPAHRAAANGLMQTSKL
Sequence of SSTR3 (P32745 whole entry): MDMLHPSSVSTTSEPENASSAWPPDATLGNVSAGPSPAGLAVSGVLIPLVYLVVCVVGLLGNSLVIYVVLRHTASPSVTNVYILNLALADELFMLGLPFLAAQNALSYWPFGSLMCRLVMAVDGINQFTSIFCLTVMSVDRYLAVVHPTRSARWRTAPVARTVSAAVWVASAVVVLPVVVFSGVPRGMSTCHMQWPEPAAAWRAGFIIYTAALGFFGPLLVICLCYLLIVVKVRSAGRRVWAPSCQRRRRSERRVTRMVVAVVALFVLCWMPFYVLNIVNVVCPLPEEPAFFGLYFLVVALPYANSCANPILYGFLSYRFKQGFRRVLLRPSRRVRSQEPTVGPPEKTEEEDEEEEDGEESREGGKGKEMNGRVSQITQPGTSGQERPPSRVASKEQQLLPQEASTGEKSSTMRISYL
Sequence of SSTR1 (P30872 whole entry): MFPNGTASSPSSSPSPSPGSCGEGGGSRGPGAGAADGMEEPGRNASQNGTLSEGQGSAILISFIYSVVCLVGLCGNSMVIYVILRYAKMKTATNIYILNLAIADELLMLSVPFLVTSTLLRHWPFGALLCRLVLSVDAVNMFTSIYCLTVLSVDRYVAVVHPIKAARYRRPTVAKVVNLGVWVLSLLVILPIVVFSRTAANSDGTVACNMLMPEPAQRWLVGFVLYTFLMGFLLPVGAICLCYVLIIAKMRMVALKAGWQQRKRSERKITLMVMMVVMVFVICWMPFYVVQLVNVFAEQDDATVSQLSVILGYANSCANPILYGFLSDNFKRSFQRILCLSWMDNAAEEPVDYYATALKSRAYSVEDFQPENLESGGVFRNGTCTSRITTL

Substance	% displacement of [^125I] Tyr^11-SRIF-14 (SSTR3; at 1 nM (in brackets)) [%]	% displacement of [^125I] Tyr^11-SRIF-14 (SSTR3; at 10 nM) [%]	% displacement of [^125I] Tyr^11-SRIF-14 (SSTR2; at 1 nM (in brackets))	% displacement of [^125I] Tyr^11-SRIF-14 (SSTR2; at 10 nM)	% displacement of [^125I] Tyr^11-SRIF-14 (SSTR1; at 1 nM (in brackets)) [%]	% displacement of [^125I] Tyr^11-SRIF-14 (SSTR1; at 10 nM) [%]	% displacement of [^125I] Tyr^11-SRIF-14 (hSSTR-4; at 1 nM (in brackets))	% displacement of [^125I] Tyr^11-SRIF-14 (hSSTR-4; at 10 nM)	% displacement of [^125I] Tyr^11-SRIF-14 (SSTR5; at 1 nM (in brackets))	% displacement of [^125I] Tyr^11-SRIF-14 (SSTR5; at 10 nM)	affinity to SSTR3 (SSTR3) [nM]	affinity and selectivity to SSTR3 (in words) (SSTR3)
DOTA-D-Phe^1-Glu^2-Orn^3-Cys^4-Phe^5-D-Trp^6-Lys^7-Thr^8-Phe^9-NTEG^10-NH2 (cyclo 4-10) ({DOTA}-[dF]E[Orn]CF[dW]KTF[N(2-mercaptoethyl)Gly]-NH2; disulfide 4-10; SMILES C[C@@H](O)[C@@H]1NC(=O)[C@H](CCCCN)NC(=O)[C@@H](Cc2c[nH]c3ccccc23)NC(=O)[C@H](Cc2ccccc2)NC(=O)[C@@H](NC(=O)[C@H](CCCN)NC(=O)[C@H](CCC(=O)O)NC(=O)[C@@H](Cc2ccccc2)NC(=O)CN2CCN(CC(=O)O)CCN(CC(=O)O)CCN(CC(=O)O)CC2)CSSCCN(CC(N)=O)C(=O)[C@H](Cc2ccccc2)NC1=O) [SEQ ID NO: 23]	19	56	0(0) %	0(0) %	4	6	0(0) %	0(0) %	0(0) %	0(0) %	–	–
DOTA-Phe^1-D-Phe^2-Arg^3-(Cys^4-Phe^5-D-Trp^6-Lys^7-Thr^8-Phe^9-NTEG^10)-NH2 (cyclo 4-10) ({DOTA}-F[dF]RCF[dW]KTF[N(2-mercaptoethyl)Gly]-NH2; disulfide 4-10; SMILES C[C@@H](O)[C@@H]1NC(=O)[C@H](CCCCN)NC(=O)[C@@H](Cc2c[nH]c3ccccc23)NC(=O)[C@H](Cc2ccccc2)NC(=O)[C@@H](NC(=O)[C@H](CCCNC(=N)N)NC(=O)[C@@H](Cc2ccccc2)NC(=O)[C@H](Cc2ccccc2)NC(=O)CN2CCN(CC(=O)O)CCN(CC(=O)O)CCN(CC(=O)O)CC2)CSSCCN(CC(N)=O)C(=O)[C@H](Cc2ccccc2)NC1=O) [SEQ ID NO: 20]	66	95	0%	2%	8	14	0(0) %	0(0) %	0(0) %	0(0) %	–	–
DOTA-D-Phe^1-Lys^2-Cys^3-Tyr^4-D-Trp^5-Lys^6-Thr^7-Phe^8-NTEG^9 -NH2 (cyclo 3-9) ({DOTA}-[dF]KCY[dW]KTF[N(2-mercaptoethyl)Gly]-NH2; disulfide 3-9; SMILES C[C@@H](O)[C@@H]1NC(=O)[C@H](CCCCN)NC(=O)[C@@H](Cc2c[nH]c3ccccc23)NC(=O)[C@H](Cc2ccc(O)cc2)NC(=O)[C@@H](NC(=O)[C@H](CCCCN)NC(=O)[C@@H](Cc2ccccc2)NC(=O)CN2CCN(CC(=O)O)CCN(CC(=O)O)CCN(CC(=O)O)CC2)CSSCCN(CC(N)=O)C(=O)[C@H](Cc2ccccc2)NC1=O) [SEQ ID NO: 24]	66	88	–	–	–	–	–	–	–	–	–	–
(DOTA)2-Lys^1-D-Phe^2-Arg^3-Cys^4-Phe^5-D-Trp^6-Lys^7-Thr^8-Phe^9-NTEG^10-NH2 (cyclo 3-9) ({DOTA}-K(DOTA)[dF]RCF[dW]KTF[N(2-mercaptoethyl)Gly]-NH2; disulfide 4-10 (inferred); not fully specified; printed as (DOTA)2-Lys1-D-Phe2-Arg3-Cys4-Phe5-D-Trp6-Lys7-Thr8-Phe9-NTEG10-NH2 (cyclo 3-9)) [SEQ ID NO: 16]	47	88	6%	2%	0	5	0(0) %	0(0) %	0%	3%	–	–
DOTA-4-Amb-D-Phe^1-Arg^2-Cys^3-Phe^4-D-Trp^5-Lys^6-Thr^7-Phe^8-NTEG^9-NH2 (cyclo 3-9) ({DOTA-4Amb}-[dF]RCF[dW]KTF[N(2-mercaptoethyl)Gly]-NH2; disulfide 3-9) [SEQ ID NO: 18]	49	85	0(0) %	0(0) %	0	4	0%	8%	0(0) %	0(0) %	–	–
CPT-8-aminooctanoic acid-D-Phe^1-Arg^2-Cys^3-Phe^4-D-Trp^5-Lys^6-Thr^7-Phe^8-NTEG^9-NH2 (cyclo 3-9) ({CPT-Aoc}-[dF]RCF[dW]KTF[N(2-mercaptoethyl)Gly]-NH2; disulfide 3-9) [SEQ ID NO: 27]	12	51	0(0) %	0(0) %	0	3	0(0) %	0(0) %	0(0) %	0(0) %	≤ 10	the same selectivity to SSTR3 as SEQ ID NO: 1
DOTA-Arg^1-Gly^2-Asp^3-D-Phe^4-Arg^5-Cys^6-Phe^7-D-Trp^8-Lys^9-Thr^10-Phe^11-NTEG^12- NH2 (cyclo 6-12) ({DOTA}-RGD[dF]RCF[dW]KTF[N(2-mercaptoethyl)Gly]-NH2; disulfide 6-12; SMILES C[C@@H](O)[C@@H]1NC(=O)[C@H](CCCCN)NC(=O)[C@@H](Cc2c[nH]c3ccccc23)NC(=O)[C@H](Cc2ccccc2)NC(=O)[C@@H](NC(=O)[C@H](CCCNC(=N)N)NC(=O)[C@@H](Cc2ccccc2)NC(=O)[C@H](CC(=O)O)NC(=O)CNC(=O)[C@H](CCCNC(=N)N)NC(=O)CN2CCN(CC(=O)O)CCN(CC(=O)O)CCN(CC(=O)O)CC2)CSSCCN(CC(N)=O)C(=O)[C@H](Cc2ccccc2)NC1=O) [SEQ ID NO: 14]	46	89	–	–	–	–	–	–	–	–	–	did not interfere with the affinity and selectivity of SEQ ID NO: 3 to SSTR3
gallium labelled DOTA-GABA-D-Phe^1-Arg^2-Cys^3-Phe^4-D-Trp^5-Lys^6-Thr^7-Phe^8-NTEG^9-NH2 (cyclo 3-9) ({DOTA-GABA}-[dF]RCF[dW]KTF[N(2-mercaptoethyl)Gly]-NH2; disulfide 3-9; also: gallium complex of DOTA) [SEQ ID NO: 8]	61	88	0%	10%	0	10	5%	4%	0%	15%	–	maintains the same affinity and selectivity to SSTR3 as SEQ ID NO. 1, and SEQ ID NO. 3-7
DOTA-D-Phe^1-Orn^2-Cys^3-Phe^4-D-Trp^5-Lys^6-Thr^7-Phe^8-NTEG^9-NH2 cyclo 3-9 [SEQ ID NO: 21]	59	93	0%	2%	23	22	9(9) %	9(9) %	0(0) %	0(0) %	–	did not interfere with the affinity and selectivity to SSTR3
DOTA-GABA-D-Phe^1-Arg^2-Cys^3-Phe^4-D-Trp^5-Lys^6-Thr^7-Phe^8-NTEG^9-NH2 (cyclo 3-9) ({DOTA-GABA}-[dF]RCF[dW]KTF[N(2-mercaptoethyl)Gly]-NH2; disulfide 3-9) [SEQ ID NO: 7]	–	–	–	–	–	–	–	–	–	–	–	increased the affinity and selectivity

Source: patent US20240165282A1, “CONFORMATIONAL CONSTRAINED SOMATOSTATIN RECEPTOR 3 PEPTIDE LIGANDS AND THEIR CONJUGATES AND USES THEREOF” (STARGET PHARMA LTD., priority 2021, published 2024)
